Results on one substance are retold here after article PMC1887708.

In this test the target is S107-encoded IgG (monoclonal antibody bound by the Fab-binding site of SpA). In words: ELISA. On the technique in general: An ELISA detects its analyte on a solid surface through an enzyme-linked reagent.

“monomeric domain D′ of SpA (domain or fragment)”: the Fab-binding (relative activity in the inhibition immunoassay) worked out at 0.01 M.
